From a protein production outcome set (Wang et al. 2014) come the findings set out here.

The series can be described thus: label from the status in PepcDB records.
“MKTLDFRRAGAHIALVVLFAVCPVAFADENDEVAKLYQQGNLDKALEQANAYLALKPKDPQMRFHKGLILTEQQKIPDAIKVFSSLSEDYPNLPEPYNNLAVLYASQGLYEKARGALEAAIRTHPSYSIAHENLGDIYAKLASEAYGKALQLDQGNAAAQTKLAMIKDLFIGKSGAIKTASAATAPAPPASAAPRSPAATTPSPPRSAAPATPPASVHPAPGKAPQKSAEKKTEKAEKSAPGKIAAVETHSPEKKTDVPDESDEIIKTVNAWARAWSDKNVTAYFAFYAADFQTPRGVKRTTWEKTRRDRIIKPKAIQVEITHPKVTLINPARARVSFRQLYHSDAFKHDSSKTLEMVKTDGKWQIRQERSAK”: the protein production result is reported as “failed”.
The value for “VPKLVDHDERRRSITAAAWRLIAARGIEAANMRDIATEAGYTNGALSHYFAGKDEILRTSYEHISEATDRRIAEALGDATGLDALRILCREVMPINEEQLLEARIAASLWPRAMYDEQMAATNRRTMDNWREQMAIFLEQAREEGSVGDIDVTIVVEQLLNMMMGMQILGVLTPGETSSERQLEMLEQFVAAL” was “not failed”.
Consider “MDTWKVGPVELKSRLILGSGKYEDFGVMREAIAAAKAEVVTVSVRRVELKAPGHVGLLEALEGVRLLPNTAGARTAEEAVRLARLGRLLTGERWVKLEVIPDPTYLLPDPLETLKAAERLIEEDFLVLPYMGPDLVLAKRLAALGTATVMPLAAPIGSGWGVRTRALLELFAREKASLPPVVVDAGLGLPSHAAEVMELGLDAVLVNTAIAEAQDPPAMAEAFRLAVEAGRKAYLAGPMRPREAASPSSPVEGVPFTPTGPRPGRGPQ”, for which the protein production result is reported as “not failed”.
For the sequence “LRLSCFIDQPTGLFNRSRLQEDIHEALASSVDYQLVVVDMITSAFLNDIVKALGYDFSQDLVTAIKERIESLLPRTCSLYKVGPTRFGFLLPGDRPPEHLFRTILEDFETPVECRGIPVQMQVGLGVVTLNRDPNEEQDWMRMVISAADDARDRDLGWA”, the protein production result is “failed”.
Take “MDYPDLAPRARSWAPHLLGVLRIVAAFLFLQFGTAKLFAFPGPVMPGGGTAPLASLAGIAGAIEAFGGALLLVGLFSRPVAFLLSGEMAVAYFYGHAPQGFWPVLNQGTPAALFAFVFLYLAAAGPGRFSLDGLRGKDAP”: the protein production result was “failed”.
The value for “MKTNSEELTVFVQVVESGSFSRAAEQLAMANSAVSRIVKRLEEKLGVNLLNRTTRQLSLTEEGAQYFRRAQRILQEMAAAETEMLAVHEIPQGVLSVDSAMPMVLHLLAPLAAKFNERYPHIRLSLVSSEGYINLIERKVDIALRAGELDDSGLRARHLFDSRFRVIASPEYLAKHGTPQSTEELAGHQCLGFTEPGSLNTWAVLDAQGNPYKISPHFTASSGEILRSLCLSGCGIVCLSDFLVDNDIAEGKLIPLLAEQTSDKTHPFNAVYYSDKAVNLRLRVFLDFLVEELGNNLCG” was “failed”; that for “MWPNGSSLGPCFRPTNITLEERRLIASPWFAASFCVVGLASNLLALSVLAGARQGGSHTRSSFLTFLCGLVLTDFLGLLVTGTIVVSQHAALFEWHAVDPGCRLCRFMGVVMIFFGLSPLLLGAAMASERYLGITRPFSRPAVASQRRAWATVGLVWAAALALGLLPLLGVGRYTVQYPGSWCFLTLGAESGDVAFGLLFSMLGGLSVGLSFLLNTVSVATLCHVYHGQEAAQQRPRDSEVEMMAQLLGIMVVASVCWLPLLVFIAQTVLRNPPAMSPAGQLSRTTEKELLIYLRVATWNQILDPWVYILFRRAVLRRLQPRLSTRPRRVSLCGPAWSTVARSRLTATSASRVQAILVPQPPEQLGLQA” was “failed”; that for “MQLALVLSELGEYQVSNQWLLKIIHDLDETMYDCLYFLANNYACLGLFREATQYAEQYLTCESDGEFADDAADLLELLKLDRHDVSEEQEQLITMQERARHLLEQERFAEAIEALEAIVSRYPEFWSAHNNLALAYFYNGDVERAKQKLLEVLKRDPGNLHALCNALVFAYYLHDQEEVAALCETLASVYPFFREHQYKLGATFALVGRFDSAFRWLYRLYKNGFDGDGPFYYWLAYSAYHIGHESLARQVWETLTTLHPEKLEHHHHHH” was “failed”.
With “MNLDKVNKYIKDFEKTIKKPKINFDKSKFYVGVDLGTANIVITILDKDGKPVAGVTQRSRVVRDGIVVDFMEAIEIVRKLKENLEKKLGIEITEGYTAIPPGVEQGSVRAIVNVIESAGIDVLKVVDEPTAASYVLGITDGVVVDLGGGTTGISILEKGKVIFVADEPTGGTHMTLVLAGSYGIDFETAEDIKTDKKKEKEVFVQITPVLQKMAAIVKKYIKDYKVKDVFLVGGACSFDGSESIFERELGLNIYKPYMPVYITPLGIALAGMKSLEHHHHHH” the entry was “not failed”.
